Laboratory results taken from US20250090677A1 (MULTITUDE THERAPEUTICS, published 2025).

Molecular target: T1, Human CDH6-ECD-His (human, UniProt P55285 54-615)
T1 construct: extracellular domain; Bought protein; also called human CDH6-ECD-His recombinant protein; Human CDH6-EC6D-His; not shown: His tag
T1 sequence (looked up): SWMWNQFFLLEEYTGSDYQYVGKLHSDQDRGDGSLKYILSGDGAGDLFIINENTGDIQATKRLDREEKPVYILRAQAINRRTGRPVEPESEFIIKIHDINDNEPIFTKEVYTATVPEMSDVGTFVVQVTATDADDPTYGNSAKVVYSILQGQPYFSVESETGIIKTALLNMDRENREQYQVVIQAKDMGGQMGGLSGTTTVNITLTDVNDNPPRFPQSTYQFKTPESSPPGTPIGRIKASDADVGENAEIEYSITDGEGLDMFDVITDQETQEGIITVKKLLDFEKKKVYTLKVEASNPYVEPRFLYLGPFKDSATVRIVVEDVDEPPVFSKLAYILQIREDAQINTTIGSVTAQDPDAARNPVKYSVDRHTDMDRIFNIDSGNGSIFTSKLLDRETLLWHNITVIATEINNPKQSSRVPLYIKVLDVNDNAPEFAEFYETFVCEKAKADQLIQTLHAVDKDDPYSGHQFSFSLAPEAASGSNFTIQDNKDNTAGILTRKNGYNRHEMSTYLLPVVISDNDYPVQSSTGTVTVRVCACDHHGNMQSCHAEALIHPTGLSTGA
Assay: BLI (Octet), antibody on AHC sensor, antigen 3.13-100 nM, 1:1 model
Method: Binding affinities of CL069707-H1L1 and Ch069707 were measured using the Octet® system based on Bio-Layer Interferometry (BLI) technique. Antibodies were loaded to AHC (Anti-hIgG Fc Capture) at 100 nM concentration. […] From the six different binding curves obtained from each antigen concentration, binding constants (KD) were calculated based on the 1:1 binding model. CL069707-H1L1 and Ch069707 binds to human CDH6-ECD-His antigen with similar affinity. CL069707-H1L1 binds to human CDH6-ECD-His and cyno monkey CDH6-ECD-His antigens with similar affinity.

B1: CL069707-H1L1 (antibody, human IgG1, kappa, V domains shown)
VH: EVQLVESGGGLVQPGGSLRLSCAASGFTFTTYAMNWVRQAPGKGLEWVARIRIKNNNYATYYADSVTDRFTISRDDSKNSLYLQMNSLKTEDTAVYYCVRPDYGNYGLAYWGQGTLVTVSS
VL: DIQLTQSPSSLSASVGDRVTITCSASSSISSHYLHWYQQKPGKSPKLLIYRSFYLASGVPSRFSGSGSGTDFTLTISSLQPEDFATYYCQQDIVPLTFGQGTKLEIKR
notes: Humanized IgG1/kappa, produced in 293 cells; also called humanized CL069707-H1L1
Question: B1 was tested. Which Kd did it give?
Answer: 3.08 nM
